The assay deals with 6x-histidine-fused LOS4 (LOS4-His) (Arabidopsis) (UniProt Q93ZG7). The experiment in a line: cell-based or functional assay.

Experimental findings from US20180119166A1 are described below.

6x-histidine-fused LOS4 (LOS4-His) (Arabidopsis), sequence (Q93ZG7 other isoform, or with tags, fused parts or gaps limits assumed): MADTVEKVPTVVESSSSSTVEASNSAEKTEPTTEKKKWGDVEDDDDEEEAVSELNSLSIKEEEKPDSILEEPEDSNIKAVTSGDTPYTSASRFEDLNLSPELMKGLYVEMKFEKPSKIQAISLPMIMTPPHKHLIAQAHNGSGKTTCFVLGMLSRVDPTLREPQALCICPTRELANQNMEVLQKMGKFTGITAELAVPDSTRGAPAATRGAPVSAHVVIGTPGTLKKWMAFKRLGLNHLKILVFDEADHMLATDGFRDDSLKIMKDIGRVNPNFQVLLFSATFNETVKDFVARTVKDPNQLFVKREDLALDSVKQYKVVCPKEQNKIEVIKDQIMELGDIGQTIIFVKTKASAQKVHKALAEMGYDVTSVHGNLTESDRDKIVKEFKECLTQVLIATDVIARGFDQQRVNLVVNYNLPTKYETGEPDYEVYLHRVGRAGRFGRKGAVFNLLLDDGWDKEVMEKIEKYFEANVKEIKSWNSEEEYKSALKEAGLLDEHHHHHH

For the substance “MBP fusion protein of the carboxyl-terminal domain of Gle1 (MBP-Gle1C; amino acid residues 244-611) (from UniProt Q0WPZ7 244-611)”, the LOS4 ATPase activity with RNA (LOS4-His and MBP-Gle1C at a ratio of 1:2) is 3 fold. “MBP-Gle1C (ID) (from UniProt Q0WPZ7 244-611)” registered a fold decrease in LOS4-stimulating activity against MBP-Gle1C, absence of InsP6 above 2 fold.
